From patent US9157064B2, “Methods for generating inner ear cells in vitro” (The Board of Trustees of the Leland Stanford Junior …, priority 2011, dated 2015)
“Also recorded” adds a separate entry of the source.

Experiments:
[1] = system: ESC-derived embryoid bodies; assay: Suppression of meso- and endodermal differentiation in ESC-derived embryoid bodies (Brachyury/GATA6 immunostaining); assay type: cell-based, mouse; details: single factor
Method: (§1) ES cell line C9 and iPS cell line #25-5 were used for all guidance experiments. MEF feeder cells were removed either by weaning the cells off for several passages or by pre-culturing the cells for 40 min allowing MEFs to attach. For embryoid body formation, the cells were dissociated with 0.25% trypsin-EDTA (Invitrogen) and cultured in poly(2-hydroxyethyl methacrylate)-coated 6-well cell suspension plates (Greiner). Coating was done by covering the plates with 1 ml of 2% poly(2 hydroxyethyl methacrylate) (Sigma) solution in 1:1 ethanol/acetone. After 2 min, the solution was completely aspirated and the plates were dried with open lid for 20 min in a cell culture cabinet. After three washes with PBS, the ES and iPS cells were added at a density of 50 cells/ml and cultured for 5 days in DMEM (Invitrogen) with 15% FBS, 0.1 mM MEM non-essential amino acids, […] 2-mercaptoethanol, 2 mM L-glutamine and […] ampicillin. For otic induction experiments, the following growth factors or reagents were added to the medium: recombinant mouse Dickkopf related protein 1 (Dkk-1) at 100 ng/ml (R&D Systems), SIS3 at […] (Sigma), and IGF1 at 10 ng/ml (Sigma). […]
(§2) For immunocytochemistry, the cells were fixed with 4% paraformaldehyde in PBS for 15 min at room temperature. […] Images were acquired with a Zeiss Axioimager/LSM 5 Exciter fluorescence and confocal microscope. […]

[2] = system: ESC- and iPSC-derived cells; assay: Differentiation cultures of D/S/I and bFGF-treated ESC- and iPSC-derived cells with added supplements; assay type: cell-based, mouse; details: differentiation cultures supplemented, data not shown
From the text: Future identification of these signals could provide important clues about the mechanisms controlling the initiation of hair bundle growth during embryonic development.
Beside FGF signaling, activation of the canonical Wnt pathway has been proposed to further promote otic commitment of Pax2-expressing cells of the FGF-dependent pre-otic field of the chicken embryo (Ohyama et al., 2006).

ESC-derived cultures = assay: Otic induction of ESC-derived embryoid body cultures (Pax2 immunostaining); assay type: cell-based, mouse; details: D/S/I-treated ESC-derived embryoid body cells; SU5402 treatment between d5 and d8
Method: Embryoid bodies were transferred into fibronectin-coated 4-well dishes (Greiner) at 30 embryoid bodies per well and cultured for three days in DMEM/F12 (Invitrogen, mixed 1:1) supplemented with N2 and B27 (Invitrogen), bFGF (R&D Systems, 25 ng/ml), heparin sulfate (Sigma, 50 ng/ml), and ampicillin ([…]). FGF3 (recombinant human FGF-3, R&D Systems) and FGF10 (recombinant human FGF-10, R&D Systems) were used at 25 ng/ml in parallel experiments. The FGF receptor antagonist SU5402 (a gift from Pfizer R&D) was used at […]. After FGF-treatment, the cells were detached using 0.05% trypsin/EDTA (Sigma) in PBS, mildly triturated, and passed 1:10 into individual wells of 4-well dishes coated with either fibronectin, gelatin, MEFs, or mitotically inactivated embryonic (E18) chicken utricle stromal cells. Utricle stromal cells were prepared from 20 utricles whose sensory epithelia were removed after 40 min treatment with 0.5 mg/ml thermolysin (Sigma) in DMEM/F12 at 37 C. After addition of 5% serum, the sensory epithelia were removed and used in unrelated experiments. […]
as §2

hESCs = assay: Otic induction from hESCs (PAX2-expressing otic progenitor cells); assay type: cell-based, human; details: hESC-derived cultures; factor added in the induction and/or stabilization phase (FIG. 23)
Method: FIG. 22. Optimization of lengths of incubations with factors for culturing cell populations comprising otic progenitor cells from hESCs. (a) and (b). A culture that is enriched 8.3% for PAX2-expressing otic progenitor cells may be generated by the incubation of hESCs with DKK1/SIS3/IFG-1 for 5 days, followed by incubation of the resultant embryoid bodies comprising preplacodal ectodermal cells with bFGF for 3 days.
FIG. 23A-C. Culturing in the presence of different factors impacts the proportion of otic progenitor cells produced. (a) Culturing in the presence of BMP4 reduces the proportion of otic progenitor cells produced. (b) Culturing in the presence of Noggin during the induction phase of otic progenitor cell fate acquisition, and restricting the exposure of cells to BMP4 to the stabilization phase of otic progenitor cell fate acquisition increases the proportion of otic progenitor cells produced. (c) Culturing in the presence of R-spondin 1 during the induction phase of otic progenitor cell fate acquisition increases the proportion of otic progenitor cells produced.
FIG. 23D. Culturing in the presence of FGF19 during both the induction phase and the stabilization phase of otic progenitor cell fate acquisition increases the proportion of otic progenitor cells produced.

[3] = system: iPSC-derived embryoid bodies; assay: Suppression of meso- and endodermal differentiation in iPSC-derived embryoid bodies (Brachyury/GATA6 immunostaining); assay type: cell-based, mouse; details: single factor
Method: as §1, §2

Molecule: COc1cc2c(cc1OC)CN(C(=O)/C=C/c1c(-c3ccccc3)n(C)c3ncccc13)CC2 [SIS3, reference compound]
- number of Brachyury-positive cells, factor alone [1]: significantly reduced

Molecule: [Cl-].[Li+] [LiCl, reference compound]
- ability or efficiency to generate hair cell-like cells [2]: did not observe an increase

Molecule: Cc1c[nH]c(/C=C2\C(=O)Nc3ccccc32)c1CCC(=O)O [SU5402]
- Pax2 induction / Pax2 expression (ESC-derived cultures): abolishment of Pax2 induction; also recorded: virtually diminished Pax2 expression

Molecule: FGF19: fibroblast growth factor 19, ligand for FGFR4
- proportion of otic progenitor cells produced (hESCs): increases

B1: Wnt3a: recombinant Wnt3a (protein, UniProt P56704 19-352, looked up)
Protein Wnt-3a: SYPIWWSLAVGPQYSSLGSQPILCASIPGLVPKQLRFCRNYVEIMPSVAEGIKIGIQECQHQFRGRRWNCTTVHDSLAIFGPVLDKATRESAFVHAIASAGVAFAVTRSCAEGTAAICGCSSRHQGSPGKGWKWGGCSEDIEFGGMVSREFADARENRPDARSAMNRHNNEAGRQAIASHMHLKCKCHGLSGSCEVKTCWWSQPDFRAIGDFLKDKYDSASEMVVEKHRESRGWVETLRPRYTYFKVPTERDLVYYEASPNFCEPNPETGSFGTRDRTCNVSSHGIDGCDLLCCGRGHNARAERRREKCRCVFHWCCYVSCQECTRVYDVHTCK
- ability or efficiency to generate hair cell-like cells [2]: did not observe an increase

B2: BMP4: activator of BMP signaling (protein, UniProt P12644 293-408, looked up)
Bone morphogenetic protein 4: SPKHHSQRARKKNKNCRRHSLYVDFSDVGWNDWIVAPPGYQAFYCHGDCPFPLADHLNSTNHAIVQTLVNSVNSSIPKACCVPTELSAISMLYLDEYDKVVLKNYQEMVVEGCGCR
- proportion of otic progenitor cells produced (hESCs): reduces

B3: R-spondin 1: Roof plate-specific Spondin 1, natural enhancer of the canonical Wnt pathway (protein, UniProt Q2MKA7 21-263, looked up)
R-spondin-1: SRGIKGKRQRRISAEGSQACAKGCELCSEVNGCLKCSPKLFILLERNDIRQVGVCLPSCPPGYFDARNPDMNKCIKCKIEHCEACFSHNFCTKCKEGLYLHKGRCYPACPEGSSAANGTMECSSPAQCEMSEWSPWGPCSKKQQLCGFRRGSEERTRRVLHAPVGDHAACSDTKETRRCTVRRVPCPEGQKRRKGGQGRRENANRNLARKESKEAGAGSRRRKGQQQQQQQGTVGPLTSAGPA
- proportion of otic progenitor cells produced (hESCs): increases

B4: Noggin: naturally occurring inhibitor of BMP signaling (protein, UniProt Q13253 28-232, looked up)
Noggin: QHYLHIRPAPSDNLPLVDLIEHPDPIFDPKEKDLNETLLRSLLGGHYDPGFMATSPPEDRPGGGGGAAGGAEDLAELDQLLRQRPSGAMPSEIKGLEFSEGLAQGKKQRLSKKLRRKLQMWLWSQTFCPVLYAWNDLGSRFWPRYVKVGSCFSKRSCSVPEGMVCKPSKSVHLTVLRWRCQRRGGQRCGWIPIQYPIISECKCSC
- proportion of otic progenitor cells produced (hESCs): increases

B5: Dkk1: recombinant mouse Dickkopf related protein 1, Wnt inhibitor (protein, UniProt O54908 32-272, looked up)
Dickkopf-related protein 1: TLNSVLINSNAIKNLPPPLGGAGGQPGSAVSVAPGVLYEGGNKYQTLDNYQPYPCAEDEECGSDEYCSSPSRGAAGVGGVQICLACRKRRKRCMRHAMCCPGNYCKNGICMPSDHSHFPRGEIEESIIENLGNDHNAAAGDGYPRRTTLTSKIYHTKGQEGSVCLRSSDCAAGLCCARHFWSKICKPVLKEGQVCTKHKRKGSHGLEIFQRCYCGEGLACRIQKDHHQASNSSRLHTCQRH
- number of Brachyury-positive cells, factor alone [1]: significantly reduced
- Brachyury-expressing cell population, factor alone [3]: significantly reduce
